In IntAct's records for PubMed 22916032:

B1: U3 small nucleolar RNA-associated protein 4 homolog (Homo sapiens), Q969X6 (parent)
chain: MGEFKVHRVRFFNYVPSGIRCVAYNNQSNRLAVSRTDGTVEIYNLSANYFQEKFFPGHESRATEALCWAEGQRLFSAGLNGEIMEYDLQALNIKYAMDAFGGPIWSMAASPSGSQLLVGCEDGSVKLFQITPDKIQFERNFDRQKSRILSLSWHPSGTHIAAGSIDYISVFDVKSGSAVHKMIVDRQYMGVSKRKCIVWGVAFLSDGTIISVDSAGKVQFWDSATGTLVKSHLIANADVQSIAVADQEDSFVVGTAEGTVFHFQLVPVTSNSSEKQWVRTKPFQHHTHDVRTVAHSPTALISGGTDTHLVFRPLMEKVEVKNYDAALRKITFPHRCLISCSKKRQLLLFQFAHHLELWRLGSTVATGKNGDTLPLSKNADHLLHLKTKGPENIICSCISPCGSWIAYSTVSRFFLYRLNYEHDNISLKRVSKMPAFLRSALQILFSEDSTKLFVASNQGALHIVQLSGGSFKHLHAFQPQSGTVEAMCLLAVSPDGNWLAASGTSAGVHVYNVKQLKLHCTVPAYNFPVTAMAIAPNTNNLVIAHSDQQVFEYSIPDKQYTDWSRTVQKQGFHHLWLQRDTPITHISFHPKRPMHILLHDAYMFCIIDKSLPLPNDKTLLYNPFPPTNESDVIRRRTAHAFKISKIYKPLLFMDLLDERTLVAVERPLDDIIAQLPPPIKKKKFGT
partner: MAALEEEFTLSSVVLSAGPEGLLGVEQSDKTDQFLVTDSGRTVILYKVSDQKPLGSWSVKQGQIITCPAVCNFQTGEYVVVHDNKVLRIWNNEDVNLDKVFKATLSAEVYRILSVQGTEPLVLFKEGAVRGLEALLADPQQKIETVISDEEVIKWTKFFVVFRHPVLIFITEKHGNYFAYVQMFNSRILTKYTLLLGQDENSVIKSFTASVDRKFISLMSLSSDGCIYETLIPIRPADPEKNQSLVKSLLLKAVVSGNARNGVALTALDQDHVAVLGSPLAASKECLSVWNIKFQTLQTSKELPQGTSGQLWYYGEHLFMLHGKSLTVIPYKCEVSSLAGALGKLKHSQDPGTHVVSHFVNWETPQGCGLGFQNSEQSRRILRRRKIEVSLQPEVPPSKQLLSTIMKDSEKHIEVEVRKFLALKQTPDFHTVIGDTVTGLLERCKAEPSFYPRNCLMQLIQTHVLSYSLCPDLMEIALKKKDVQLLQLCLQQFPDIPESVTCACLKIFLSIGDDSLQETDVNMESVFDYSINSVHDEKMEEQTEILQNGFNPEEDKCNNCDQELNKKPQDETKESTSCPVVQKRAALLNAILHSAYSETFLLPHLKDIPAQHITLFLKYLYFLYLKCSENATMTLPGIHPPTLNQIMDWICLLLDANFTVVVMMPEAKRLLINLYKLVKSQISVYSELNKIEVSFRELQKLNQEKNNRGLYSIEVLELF

Variants of: B1
Conditions: with nol11_human NOL11, Q9H8H0

Variant	effect of a mutation on the interaction
R565W	decreasing interaction strength
